Earlier results as cited in publication PMC5576430.
Like-named read-outs stand apart in the source and are kept apart here.

Tests used:
[1] = target: p300 CH1 (Homo sapiens) (UniProt Q09472)
[2] = target: HIF-1α (Homo sapiens) (UniProt Q16665)
[3] = target: p300 CH1 (Homo sapiens) (UniProt Q09472); experiment: tryptophan fluorescence

Chain of UniProt Q09472 (Q09472 331-417): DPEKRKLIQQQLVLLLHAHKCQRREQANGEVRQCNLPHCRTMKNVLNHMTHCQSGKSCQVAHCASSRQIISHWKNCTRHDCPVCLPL

For HIF-1α C-TAD helix 2 peptide, the Kd [1] is listed as 825 nM.
For cyclo-CLLFVY, the Kd [2] is given as 124 nM.
In the case of “HIF-1α helix 3 unconstrained peptide helix 3 (from UniProt Q16665)”, the Kd [3] is listed as 6060 nM.
